Test results taken from patent US20220348661A1 (HARBOUR BIOMED SHANGHAI, published 2022).

What was measured:
human CD3 [1] = target: T1, human CD3 (human, UniProt P07766 23-207; P09693 23-182; P04234 22-171; P20963 22-164); assay: flow cytometry on recombinant CHOK1 cells overexpressing human CD3
T1 construct: whole, on cells; SP34 is described as an anti-human CD3e antibody; also called human TCR/CD3 complex; CD3 on human pan-T cells
Source text: The flow cytometryFACS was used to analyse the binding of the CD3 antibody to CD3-expressing cells, where the CD3-expressing cells could be: CHOK1 cells overexpressing human CD3 or HEK 293 cells (plasmids encoding the ORF of γ, δ, ε, and ζ chains of human-derived CD3 and plasmids encoding the ORF of α and β chains of human TCR were co-transfected with host cells CHOK1 (ATCC, CCL-61) or HEK293 (ATCC, CRL-1573) to construct stable cell lines expressing the structure of the human TCR/CD3 complex); CHOK1 or HEK293 cells overexpressing cynomolgus monkey CD3; human pan-T cells (isolated with the human pan-T cell isolation kit (Miltenyi, #130-096-535) from PBMC); cynomolgus monkey pan-T cells. Specifically, the collected cells were washed twice with PBS containing 2% FBS (FACS buffer), and resuspended with FACS buffer, divided into 96 well plates with 1×10⁵ cells per well, centrifuged at 500 g for 5 minutes. The supernatant was discarded, and 100 μl of pre-gradient diluted CD3 antibody was added, then incubating for 1 hour at room temperature and washing twice with FACS buffer. […] The fluorescent luminescence signal value were read by flow cytometry (BD FACS CANTOII or ACEA NovoCyte), and the resulted data were processed and analyzed by software FlowJo v10 (FlowJo, LLC). […]

human B7H4 = target: T2, human B7H4 (human, UniProt Q7Z7D3 25-282); assay: flow cytometry on SK-BR-3 cells expressing human B7H4
T2 construct: whole, on cells; also called B7H4 on tumor cell SK-BR-3
T2 sequence (looked up): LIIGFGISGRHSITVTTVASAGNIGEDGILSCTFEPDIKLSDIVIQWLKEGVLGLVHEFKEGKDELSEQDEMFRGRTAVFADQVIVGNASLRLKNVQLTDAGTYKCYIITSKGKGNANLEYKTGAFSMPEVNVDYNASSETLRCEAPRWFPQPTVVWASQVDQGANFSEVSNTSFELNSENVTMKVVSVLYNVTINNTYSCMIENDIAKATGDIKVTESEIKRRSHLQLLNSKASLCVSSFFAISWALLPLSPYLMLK
Procedure: This Example investigates the ability of the bispecific antibody binding tumor cell SK-BR-3 (ATCC, HTB-30) expressing human B7H4. Specifically, collected cell SK-BR-3 suspension, adjusted the cell density to 1×10⁶/ml, and inoculated them at 100 μl/well in a 96 well V-bottom plate (Corning, #3894); subsequently, the antibody to be tested with a concentration 2-fold of final concentration obtained by 3-fold gradient dilution was added at volume of 100 μl/well. Cells were incubated at 4° C. in the dark for 2 hours. Afterwards, the cells were rinsed twice with 100 μl/well of pre-chilled PBS, centrifuged at 500 g, 4° C. for 5 minutes. The supernatant was discarded. Then added 100 μl/well of secondary antibody Alexa Fluor 488 AffiniPure Goat Anti-Human IgG, Fcγ fragment specific (Jackson ImmunoResearch, #109-545-098), and incubated the cells from light at 4° C. in the dark for 1 hour. Then the cells were rinsed twice with 100 μl/well of pre-chilled PBS, centrifuged at 500 g, for 5 minutes. The supernatant was discarded. Finally, the cells were resuspended with 200 μL/well of pre-chilled PBS. The fluorescent luminescence signal value were read by flow cytometry (BD FACS CANTOII or ACEA NovoCyte), and the resulted data were processed and analyzed by software FlowJo v10 (FlowJo, LLC). […]

human CD3 [2] = target: T1, human CD3; assay: flow cytometry on human pan-T cells
human ROR1 = target: T3, human ROR1 (human, UniProt Q01973 30-937); assay: flow cytometry on Panc-1 cells expressing human ROR1
T3 construct: whole, on cells; also called ROR1 on tumor cell Panc-1
Procedure: This Example investigates the ability of the bispecific antibody binding tumor cell Panc-1(ATCC, CRL-1469) expressing human ROR1. Specifically, collected cell Panc-1 suspension, adjusted the cell density to 1×10⁶/ml, and inoculated them at 100 μl/well in a 96 well V-bottom plate (Corning, #3894); subsequently, the antibody to be tested with a concentration 2-fold of final concentration obtained by 3-fold gradient dilution was added at volume of 100 μl/well. Cells were incubated at 4° C. in the dark for 2 hours. Afterwards, the cells were rinsed twice with 100 μl/well of pre-chilled PBS, centrifuged at 500 g, 4° C. for 5 minutes. The supernatant was discarded. Then added 100 μl/well of fluorescent secondary antibody Alexa Fluor 488 AffiniPure Goat Anti-Human IgG, Fcγ fragment specific (Jackson ImmunoResearch, #109-545-098), and incubated the cells from light at 4° C. in the dark for 1 hour. Then the cells were rinsed twice with 100 μl/well of pre-chilled PBS, centrifuged at 500 g, for 5 minutes. The supernatant was discarded. Finally, the cells were resuspended with 200 μL/well of pre-chilled PBS. The fluorescent luminescence signal value were read by flow cytometry (BD FACS CANTOII or ACEA NovoCyte), and the resulted data were processed and analyzed by software FlowJo v10 (FlowJo, LLC). […]

T1 sequence (P07766 23-207, chain 1 of 4): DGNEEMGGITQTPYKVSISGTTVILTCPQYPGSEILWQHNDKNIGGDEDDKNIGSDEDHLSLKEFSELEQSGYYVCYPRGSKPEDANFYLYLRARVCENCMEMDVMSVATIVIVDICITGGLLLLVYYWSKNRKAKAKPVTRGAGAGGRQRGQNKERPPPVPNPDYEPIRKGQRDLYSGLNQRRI
T1 sequence (P09693 23-182, chain 2 of 4): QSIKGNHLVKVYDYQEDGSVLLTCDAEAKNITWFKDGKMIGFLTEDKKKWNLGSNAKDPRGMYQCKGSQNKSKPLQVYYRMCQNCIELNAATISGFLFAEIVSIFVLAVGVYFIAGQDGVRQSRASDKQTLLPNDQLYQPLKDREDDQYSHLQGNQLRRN
T1 sequence (P04234 22-171, chain 3 of 4): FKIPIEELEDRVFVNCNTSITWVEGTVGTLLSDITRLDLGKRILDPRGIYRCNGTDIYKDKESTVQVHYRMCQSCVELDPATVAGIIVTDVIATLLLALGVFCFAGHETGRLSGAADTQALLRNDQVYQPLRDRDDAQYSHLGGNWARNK
T1 sequence (P20963 22-164, chain 4 of 4): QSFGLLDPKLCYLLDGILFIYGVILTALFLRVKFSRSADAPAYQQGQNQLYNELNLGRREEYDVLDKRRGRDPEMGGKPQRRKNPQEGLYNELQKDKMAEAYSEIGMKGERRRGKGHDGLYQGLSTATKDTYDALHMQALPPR
T3 sequence (Q01973 30-937): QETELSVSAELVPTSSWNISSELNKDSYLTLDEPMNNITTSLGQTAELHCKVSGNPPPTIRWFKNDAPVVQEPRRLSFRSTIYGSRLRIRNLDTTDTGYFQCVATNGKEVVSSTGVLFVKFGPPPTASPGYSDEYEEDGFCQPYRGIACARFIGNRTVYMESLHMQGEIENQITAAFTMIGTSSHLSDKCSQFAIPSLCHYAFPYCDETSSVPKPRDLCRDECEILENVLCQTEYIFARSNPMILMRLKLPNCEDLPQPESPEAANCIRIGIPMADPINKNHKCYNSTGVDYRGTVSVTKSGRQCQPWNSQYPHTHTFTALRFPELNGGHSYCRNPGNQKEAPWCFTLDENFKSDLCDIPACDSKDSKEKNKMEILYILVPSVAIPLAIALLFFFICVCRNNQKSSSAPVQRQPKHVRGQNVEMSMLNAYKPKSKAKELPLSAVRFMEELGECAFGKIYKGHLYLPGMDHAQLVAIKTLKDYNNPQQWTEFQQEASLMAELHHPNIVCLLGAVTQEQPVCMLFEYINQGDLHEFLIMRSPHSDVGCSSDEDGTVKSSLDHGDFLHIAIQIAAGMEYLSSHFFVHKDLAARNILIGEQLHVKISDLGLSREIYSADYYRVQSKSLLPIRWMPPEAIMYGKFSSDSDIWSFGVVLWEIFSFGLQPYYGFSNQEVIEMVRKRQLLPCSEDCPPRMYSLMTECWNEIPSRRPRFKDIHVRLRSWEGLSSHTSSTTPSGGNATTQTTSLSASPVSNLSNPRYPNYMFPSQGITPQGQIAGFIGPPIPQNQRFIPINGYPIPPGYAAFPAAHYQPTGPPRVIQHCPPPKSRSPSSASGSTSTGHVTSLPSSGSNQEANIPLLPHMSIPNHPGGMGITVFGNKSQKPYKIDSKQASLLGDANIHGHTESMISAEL

B1: SP34 murine-human chimeric recombinant antibody PR000260 (antibody, human IgG1, lambda, L234A L235A, V domains shown)
VH: EVQLVESGGGLVQPKGSLKLSCAASGFTFNTYAMNWVRQAPGKGLEWVARIRSKYNNYATYYADSVKDRFTISRDDSQSILYLQMNNLKTEDTAMYYCVRHGNFGNSYVSWFAYWGQGTLVTVSA
VL: QAVVTQESALTTSPGETVTLTCRSSTGAVTTSNYANWVQEKPDHLFTGLIGGTNKRAPGVPARFSGSLIGDKAALTITGAQTEDEAIYFCALWYSNLWVFGGGTKLTVLG
notes: IgG1 LALA, lambda; made in HEK293; also called SP34 chimeric antibody; PR000260(SP34)
Q: Does B1 bind (human CD3 [1])?
A: Result: binds

B2: B7H4 antibody PR000014 (antibody, V domains shown)
VH: EVQLVQSGAEVKKPGASVKVSCKASGYTFTSYWIGWVRQAPGQGLEWIGDIYPGGGYTNYNEKFKGRVTITRDTSTSTAYLELSSLRSEDTAVYYCARLAGSSYRGAMDSWGQGTLVTVSS
VL: DIQMTQSPSSLSASVGDRVTITCKASQGFNKYVAWYQQKPGKAPKLLIYYTSTLQPGVPSRFSGSGSGRDYTLTISSLQPEDFATYYCLQYGDLLYAFGQGTKVEIKR
notes: variable region derived from WO2016040724; also called recombinant IgG antibody PR000014
Q: Does B2 bind (human B7H4)?
A: Result: binds

B3: bispecific antibody PR002883 targeting B7H4xCD3 (bispecific antibody)
heavy 1: QAVVTQEPSLTVSPGGTVTLTCRSSTGAVTTSNYANWVQQKPGQAPRGLIGGTNKRAPWTPARFSGSLLGDKAALTLLGAQPEDEAEYFCALWYSNLWVFGGGTKLTVLGGGQSGQGGSGGGGSEVQLVESGGGLVQPGGSLKLSCAASGFTFNTYAMNWVRQASGKGLEWVGRIRSKYNNYATYYADSVKDRFTISRDDSKSTLYLQMNSLKTEDTAVYYCVRHGNFGNSYVSWFAYWGQGTLVTVSSASEPKSSDKTHTCPPCPAPEAAGGPSVFLFPPKPKDTLMISRTPEVTCVVVDVSHEDPEVKFNWYVDGVEVHNAKTKPREEQYNSTYRVVSVLTVLHQDWLNGKEYKCKVSNKALGAPIEKTISKAKGQPREPQVYTLPPCREEMTKNQVSLWCLVKGFYPSDIAVEWESNGQPENNYKTTPPVLDSDGSFFLYSKLTVDKSRWQQGNVFSCSVMHEALHNHYTQKSLSLSPGK
heavy 2: EVQLVQSGAEVKKPGASVKVSCKASGYTFTSYWIGWVRQAPGQGLEWIGDIYPGGGYTNYNEKFKGRVTITRDTSTSTAYLELSSLRSEDTAVYYCARLAGSSYRGAMDSWGQGTLVTVSSASTKGPSVFPLAPSSKSTSGGTAALGCLVKDYFPEPVTVSWNSGALTSGVHTFPAVLQSSGLYSLSSVVTVPSSSLGTQTYICNVNHKPSNTKVDKKVEPKSCDKTHTCPPCPAPEAAGGPSVFLFPPKPKDTLMISRTPEVTCVVVDVSHEDPEVKFNWYVDGVEVHNAKTKPREEQYNSTYRVVSVLTVLHQDWLNGKEYKCKVSNKALGAPIEKTISKAKGQPREPQVCTLPPSREEMTKNQVSLSCAVKGFYPSDIAVEWESNGQPENNYKTTPPVLDSDGSFFLVSKLTVDKSRWQQGNVFSCSVMHEALHNHYTQKSLSLSPGK
light: DIQMTQSPSSLSASVGDRVTITCKASQGFNKYVAWYQQKPGKAPKLLIYYTSTLQPGVPSRFSGSGSGRDYTLTISSLQPEDFATYYCLQYGDLLYAFGQGTKVEIKRTVAAPSVFIFPPSDEQLKSGTASVVCLLNNFYPREAKVQWKVDNALQSGNSQESVTEQDSKDSTYSLSSTLTLSKADYEKHKVYACEVTHQGLSSPVTKSFNRGEC
notes: asymmetric three-chain structure, LALAPG; SDS-PAGE purity 70% after one-step purification; also called B7H4×CD3 bispecific antibody
Q: Does B3 bind (human CD3 [2])?
A: Result: binds

B4: ROR1 antibody PR000374 (antibody, human IgG1, kappa, V domains shown)
VH: EVQLVESGGGLVQPGRSLRLSCTASGSDINDYPITWVRQAPGQGLEWIGFINSGGSTWYASWVKGRFTISRDDSKSIAYLQMNSLKTEDTAVYYCARGYSTYYRDFNIWGQGTLVTVSS
VL: DIQMTQSPSSLSASVGDRVTINCQASQSIDSNLAWFQQKPGQPPKLLIYRASNLASGVPDRFSGSGSGTDFTLTISSLEAEDVATYYCLGGVGAVSYRTSFGGGTKVEIKR
notes: variable region derived from WO2016094873; also called recombinant IgG antibody PR000374
Q: Does B4 bind (human ROR1)?
A: Result: binds

B5: bispecific antibody PR002885 targeting ROR1xCD3 (bispecific antibody, human IgG1, kappa, L234A L235A)
heavy 1: QAVVTQEPSLTVSPGGTVTLTCRSSTGAVTTSNYANWVQQKPGQAPRGLIGGTNKRAPWTPARFSGSLLGDKAALTLLGAQPEDEAEYFCALWYSNLWVFGGGTKLTVLGGGQSGQGGSGGGGSEVQLVESGGGLVQPGGSLKLSCAASGFTFNTYAMNWVRQASGKGLEWVGRIRSKYNNYATYYADSVKDRFTISRDDSKSTLYLQMNSLKTEDTAVYYCVRHGNFGNSYVSWFAYWGQGTLVTVSSASEPKSSDKTHTCPPCPAPEAAGGPSVFLFPPKPKDTLMISRTPEVTCVVVDVSHEDPEVKFNWYVDGVEVHNAKTKPREEQYNSTYRVVSVLTVLHQDWLNGKEYKCKVSNKALGAPIEKTISKAKGQPREPQVYTLPPCREEMTKNQVSLWCLVKGFYPSDIAVEWESNGQPENNYKTTPPVLDSDGSFFLYSKLTVDKSRWQQGNVFSCSVMHEALHNHYTQKSLSLSPGK
heavy 2: EVQLVESGGGLVQPGRSLRLSCTASGSDINDYPITWVRQAPGQGLEWIGFINSGGSTWYASWVKGRFTISRDDSKSIAYLQMNSLKTEDTAVYYCARGYSTYYRDFNIWGQGTLVTVSSASTKGPSVFPLAPSSKSTSGGTAALGCLVKDYFPEPVTVSWNSGALTSGVHTFPAVLQSSGLYSLSSVVTVPSSSLGTQTYICNVNHKPSNTKVDKKVEPKSCDKTHTCPPCPAPEAAGGPSVFLFPPKPKDTLMISRTPEVTCVVVDVSHEDPEVKFNWYVDGVEVHNAKTKPREEQYNSTYRVVSVLTVLHQDWLNGKEYKCKVSNKALGAPIEKTISKAKGQPREPQVCTLPPSREEMTKNQVSLSCAVKGFYPSDIAVEWESNGQPENNYKTTPPVLDSDGSFFLVSKLTVDKSRWQQGNVFSCSVMHEALHNHYTQKSLSLSPGK
light: DIQMTQSPSSLSASVGDRVTINCQASQSIDSNLAWFQQKPGQPPKLLIYRASNLASGVPDRFSGSGSGTDFTLTISSLEAEDVATYYCLGGVGAVSYRTSFGGGTKVEIKRTVAAPSVFIFPPSDEQLKSGTASVVCLLNNFYPREAKVQWKVDNALQSGNSQESVTEQDSKDSTYSLSSTLTLSKADYEKHKVYACEVTHQGLSSPVTKSFNRGEC
notes: asymmetric three-chain structure, LALAPG; SDS-PAGE purity 70% after one-step purification; also called ROR1×CD3 bispecific antibody
Q: Does B5 bind (human CD3 [2])?
A: Result: binds
